These results are taken from article doi:10.1101/2023.10.23.563594 (bioRxiv, 2023).

The labels stand for the following.
B1: RING1 and YY1-binding protein (RYBP), full-length wild type, co-expressed in the vPRC1.4 complex (natural protein)
chain: MTMGDKKSPTRPKRQAKPAADEGFWDCSVCTFRNSAEAFKCSICDVRKGTSTRKPRINSQLVAQQVAQQYATPPPPKKEKKEKVEKQDKEKPEKDKEISPSVTKKNTNKKTKPKSDILKDPPSEANSIQSANATTKTSETNHTSRPRLKNVDRSTAQQLAVTVGNVTVIITDFKEKTRSSSTSSSTVTSSAGSEQQNQSSSGSESTDKGSSRSSTPKGDMSAVNDESF
B5: Polycomb group ring-finger subunit PCGF4, full-length, co-expressed in the vPRC1.4 complex (natural protein)
chain: MHRTTRIKITELNPHLMCVLCGGYFIDATTIIECLHSFCKTCIVRYLETSKYCPICDVQVHKTRPLLNIRSDKTLQDIVYKLVPGLFKNEMKRRRDFYAAHPSADAANGSNEDRGEVADEDKRIITDDEIISLSIEFFDQNRLDRKVNKDKEKSKEEVNDKRYLRCPAAMTVMHLRKFLRSKMDIPNTFQIDVMYEEEPLKDYYTLMDIAYIYTWRRNGPLPLKYRVRPTCKRMKISHQRDGLTNAGELESDSGSDKANSPAGGIPSTSSCLPSPSTPVQSPHPQFPHISSTMNGTSNSPSGNHQSSFANRPRKSSVNGSSATSSG
B6: E3 ubiquitin ligase subunit RING1B, full-length, co-expressed in the vPRC1.4 complex (natural protein)
chain: MSQAVQTNGTQPLSKTWELSLYELQRTPQEAITDGLEIVVSPRSLHSELMCPICLDMLKNTMTTKECLHRFCADCIITALRSGNKECPTCRKKLVSKRSLRPDPNFDALISKIYPSRDEYEAHQERVLARINKHNNQQALSHSIEEGLKIQAMNRLQRGKKQQIENGSGAEDNGDSSHCSNASTHSNQEAGPSNKRTKTSDDSGLELDNNNAAMAIDPVMDGASEIELVFRPHPTLMEKDDSAQTRYIKTSGNATVDHLSKYLAVRLALEELRSKGESNQMNLDTASEKQYTIYIATASGQFTVLNGSFSLELVSEKYWKVNKPMELYYAPTKEHK

Assay [1] deals with B5. The assay is described as follows: cross-linking.
Assay [2] has as its target B6. The assay can be described thus: cross-linking.
Assay [3] has as its target T1, full-length unlabelled RING1B-PCGF4 catalytic dimer (human, UniProt Q99496-1;P35226).
T1 sequence 1: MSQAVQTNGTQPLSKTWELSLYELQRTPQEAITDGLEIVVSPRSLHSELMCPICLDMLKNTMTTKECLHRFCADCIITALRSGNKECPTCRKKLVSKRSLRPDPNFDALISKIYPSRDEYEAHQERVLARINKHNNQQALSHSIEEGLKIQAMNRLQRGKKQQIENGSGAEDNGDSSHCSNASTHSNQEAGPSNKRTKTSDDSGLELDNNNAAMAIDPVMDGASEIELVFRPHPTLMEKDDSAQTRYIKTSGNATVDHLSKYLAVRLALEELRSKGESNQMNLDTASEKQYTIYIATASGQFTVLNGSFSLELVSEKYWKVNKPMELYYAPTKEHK
T1 sequence 2: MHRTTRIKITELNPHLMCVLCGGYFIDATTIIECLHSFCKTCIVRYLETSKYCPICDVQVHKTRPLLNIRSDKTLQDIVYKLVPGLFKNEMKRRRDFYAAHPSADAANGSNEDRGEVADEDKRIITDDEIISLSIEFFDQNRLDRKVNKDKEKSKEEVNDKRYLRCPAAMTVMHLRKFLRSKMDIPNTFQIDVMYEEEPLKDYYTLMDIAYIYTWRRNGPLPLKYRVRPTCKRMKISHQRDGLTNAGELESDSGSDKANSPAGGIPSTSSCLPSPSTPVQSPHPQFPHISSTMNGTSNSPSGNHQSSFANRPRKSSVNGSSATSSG
The assay can be described thus: pull-down.

Assay [4] concerns the target B5. The assay can be described thus: pull-down.
Assay [5] concerns the target B6. The assay can be described thus: pull-down.
In assay [6] the target is B1. The assay can be described thus: SEC-MALS.
Assay [7] deals with B6. The assay is described as follows: SEC-MALS.

B1: the binding result in assay [1] and in assay [2] was “binds” each time.

B2: RYBP full-length, 15N- or 13C/15N-labelled, from E. coli (natural protein)
chain: MTMGDKKSPTRPKRQAKPAADEGFWDCSVCTFRNSAEAFKCSICDVRKGTSTRKPRINSQLVAQQVAQQYATPPPPKKEKKEKVEKQDKEKPEKDKEISPSVTKKNTNKKTKPKSDILKDPPSEANSIQSANATTKTSETNHTSRPRLKNVDRSTAQQLAVTVGNVTVIITDFKEKTRSSSTSSSTVTSSAGSEQQNQSSSGSESTDKGSSRSSTPKGDMSAVNDESF
modifications: uniform 15N or 13C/15N isotope labelling
As for B2, the binding result in assay [3] was “binds”.

B3: RYBP A63T, co-expressed with RING1B and PCGF4 (natural protein)
chain: MTMGDKKSPTRPKRQAKPAADEGFWDCSVCTFRNSAEAFKCSICDVRKGTSTRKPRINSQLVTQQVAQQYATPPPPKKEKKEKVEKQDKEKPEKDKEISPSVTKKNTNKKTKPKSDILKDPPSEANSIQSANATTKTSETNHTSRPRLKNVDRSTAQQLAVTVGNVTVIITDFKEKTRSSSTSSSTVTSSAGSEQQNQSSSGSESTDKGSSRSSTPKGDMSAVNDESF
With B3, the binding result in assay [4] and in assay [5] was “binds” throughout.

B4: RYBP Q69K, co-expressed with RING1B and PCGF4 (natural protein)
chain: MTMGDKKSPTRPKRQAKPAADEGFWDCSVCTFRNSAEAFKCSICDVRKGTSTRKPRINSQLVAQQVAQKYATPPPPKKEKKEKVEKQDKEKPEKDKEISPSVTKKNTNKKTKPKSDILKDPPSEANSIQSANATTKTSETNHTSRPRLKNVDRSTAQQLAVTVGNVTVIITDFKEKTRSSSTSSSTVTSSAGSEQQNQSSSGSESTDKGSSRSSTPKGDMSAVNDESF
With B4, the binding result in assay [4] and in assay [5] was “binds” throughout. On to B5, for which the “stoichiometry N” value in assay [6] and in assay [7] was 1 in each case.

Regarding B6, the “stoichiometry N” value in assay [6] came out at 1.
